Data published in the supplement of paper PMC9170038.

Test system: MS2 coat protein
Test: apparent KD of MS2 coat protein; higher = weaker reporter binding
Conditions: Eterna round: R107; input ligand: theophylline 20 uM
Summary of the method: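 The buffer was 100 mM Tris-HCl pH 7.5 with 80 mM KCl and 4 mM MgCl2, used without or with constant ligand. In it, RNA switches transcribed on-chip from Illumina sequencing clusters were titrated with SNAP-549-labelled MS2 coat protein in twofold steps from 0.7 or 1.5 nM to 3 µM. Apparent KD for each design is the median of its normalised cluster binding-curve fits.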

Row | Sequence | apparent KD of MS2 coat protein [nM]
1 | GUAGGUCAGUGAUCCCGACCUACACUGGAAGGAGCGAGCGAAAGCUCAGGUAGGUCGCCAGAAACAUGAGGAUCACCCAUGUAAU [(A)''-(M)'-(A)'-(Arg1)-(Arg2)-(M1)-(M2)_Design1] | 153
2 | AUAAGUAAUGUUUCGUGUAUUAUUACAGAUACCAGACUAUACGUUGUCCCUUGGCAGCUGGAUUACAUGAGGAUCACCCAUGUUG [JR_ExcTheophyA_Sub002] | 19.3
3 | AGUUUGGACUCGGCCGCCACUCGUGAUGCUUUGGCACAUGAGGAUCACCCAUGUGGUCGGCCUUAGAGGACCGGGAGUACCAGCC [Edesceso] | 297
4 | AGAUUCGACACGGCCGCCACUCGUGACGGAUUUCCGAGUGUCGAACAUGAGGAUCACCCAUGUACGAGGACCGGGUGUUGAGUCU [XTryp B #13] | 86.7
5 | GCUAGCCGAAAGGCUAGCAAGGCUACAGAAGGAGCGUGCGAAAGCACAGGUAGGUCGCUGAGCUUGAGGAUCACCCAAGUUGCCU [SSAA - Alter Amptam #1 V+V2] | 57.2
6 | GGAUAGGACACGGCCGCCACUGCGCUAGGAUACUAGAACAUUUCCUCACAUGAGGAUCACCCAUGUAGGACCGGGUGUCCUAUCG | 76.7
7 | UGUAUGGACUGAAGGAGCGGGUUGAUAAUCUGAGGAUCACCCAGGUAAAAGGCGAAAGCCGCCCAGGUAGGUCGCAGUCCAUACU | 36.1
8 | AUCGUACCUAAUGAUACCAGCAAGUGAUCAUAACAUGAGGAUCACCCAUGUAAUCAGUGAUGCCCUUGGCAGCAUAAUCGUUACA [Same State - Theophylline B (Freestyle 2)] | 218

Same assay, conditions: Eterna round: R107; input ligand: theophylline 2 mM

Row | Sequence | apparent KD of MS2 coat protein [nM]
9 | ACAUGAGGAUCACCCAUGUCAGGGCACGAUACCAGCUGAUCCGGUGGCCCUUGGCAGCGUGACGAGUGGUCAUGAGGAUCACACG [?fmullin] | 158
10 | AAAGCCACUUCGGCCGCCACUACAACAUGAGGAUCACCCAUGUACCUCGUGUACGGUCCGAGGAGUAGGACCGGGAAGUGGUGGA [(T1'')-(Trp1)-(Ms2)-(M')-(T2')-(M'')-(Trp2)-(T1')] | 175
11 | UGUCCUCAUGCGGCCGCCACUGUCGGCCGCCACUAAACCUGAGGAUCACCCGGGUAGGACCGGGACAGGACCGGGCAUGGGUGCU [#DoubleAptamer 4 #AlternativeMS2] | 686
12 | AAUAACAAGAGGAUCACCCUUGUAAAAGAUACCAGAGUGAUGAUCCUCCCUUGGCAGCUUAACGCUGAUUGAUUACAAUCAGCGA | 142
13 | AUACAUGAGGAUCACCCAUGUGAUGGCCGGCGAGGACCGGUACGGCCGCCACUCGUGAUCCGUCCUGAAAGCAAAGCUCCCAGCA [Lalazare] | 178
14 | GACCCAUGAGUUGGAAAAGCUCAUGGGUCGCGAGGACCGGUACGGCCGCCACUCGGCUGUACAUGAGGAUCACCCAUGUCAGGGU [#1 Same State - Tryptophan A Attempt #25 (HarryS)] | 573
15 | AGUCUUAAUGGAAGGAGCGCAGUCAUAACAUGAGGAUCACCCAUGUCGAUGUGAGGGUCAUUGCAGGUAGGUCGCCAUACUAAGA [Same State - Arginine B (Freestyle 4)] | 25.3
16 | GGGCAAGAGGGAAGGAGCGUUAGCUGAGUCACAUGAGGAUCACCCAUGUCGCACAUAGUAUGACAGGUAGGUCGCCCUCUACCCU [SS-ArgB14] | 18.2
17 | GUAGGUCAGUGAUCCCGACCUACACUGGAAGGAGCGAGCGAAAGCUCAGGUAGGUCGCCAGAAACAUGAGGAUCACCCAUGUAAU [(A)''-(M)'-(A)'-(Arg1)-(Arg2)-(M1)-(M2)_Design1] | 219
18 | AGUUUGGACUCGGCCGCCACUCGUGAUGCUUUGGCACAUGAGGAUCACCCAUGUGGUCGGCCUUAGAGGACCGGGAGUACCAGCC [Edesceso] | 342
19 | AGAUUCGACACGGCCGCCACUCGUGACGGAUUUCCGAGUGUCGAACAUGAGGAUCACCCAUGUACGAGGACCGGGUGUUGAGUCU [XTryp B #13] | 90.4
20 | GCUAGCCGAAAGGCUAGCAAGGCUACAGAAGGAGCGUGCGAAAGCACAGGUAGGUCGCUGAGCUUGAGGAUCACCCAAGUUGCCU [SSAA - Alter Amptam #1 V+V2] | 48.6
21 | GGAUAGGACACGGCCGCCACUGCGCUAGGAUACUAGAACAUUUCCUCACAUGAGGAUCACCCAUGUAGGACCGGGUGUCCUAUCG | 60.4
22 | UGUAUGGACUGAAGGAGCGGGUUGAUAAUCUGAGGAUCACCCAGGUAAAAGGCGAAAGCCGCCCAGGUAGGUCGCAGUCCAUACU | 31.5

Same assay, conditions: Eterna round: R107; input ligand: tryptophan 2.4 mM

Row | Sequence | apparent KD of MS2 coat protein [nM]
23 | ACAUGAGGAUCACCCAUGUCAGGGCACGAUACCAGCUGAUCCGGUGGCCCUUGGCAGCGUGACGAGUGGUCAUGAGGAUCACACG [?fmullin] | 130
24 | UGUCCUCAUGCGGCCGCCACUGUCGGCCGCCACUAAACCUGAGGAUCACCCGGGUAGGACCGGGACAGGACCGGGCAUGGGUGCU [#DoubleAptamer 4 #AlternativeMS2] | 111
25 | AAUAACAAGAGGAUCACCCUUGUAAAAGAUACCAGAGUGAUGAUCCUCCCUUGGCAGCUUAACGCUGAUUGAUUACAAUCAGCGA | 32
26 | GACCCAUGAGUUGGAAAAGCUCAUGGGUCGCGAGGACCGGUACGGCCGCCACUCGGCUGUACAUGAGGAUCACCCAUGUCAGGGU [#1 Same State - Tryptophan A Attempt #25 (HarryS)] | 711
27 | AGUCUUAAUGGAAGGAGCGCAGUCAUAACAUGAGGAUCACCCAUGUCGAUGUGAGGGUCAUUGCAGGUAGGUCGCCAUACUAAGA [Same State - Arginine B (Freestyle 4)] | 32.6
28 | GGGCAAGAGGGAAGGAGCGUUAGCUGAGUCACAUGAGGAUCACCCAUGUCGCACAUAGUAUGACAGGUAGGUCGCCCUCUACCCU [SS-ArgB14] | 16.8
29 | GUAGGUCAGUGAUCCCGACCUACACUGGAAGGAGCGAGCGAAAGCUCAGGUAGGUCGCCAGAAACAUGAGGAUCACCCAUGUAAU [(A)''-(M)'-(A)'-(Arg1)-(Arg2)-(M1)-(M2)_Design1] | 118
30 | AUAAGUAAUGUUUCGUGUAUUAUUACAGAUACCAGACUAUACGUUGUCCCUUGGCAGCUGGAUUACAUGAGGAUCACCCAUGUUG [JR_ExcTheophyA_Sub002] | 17.1
31 | GCUAGCCGAAAGGCUAGCAAGGCUACAGAAGGAGCGUGCGAAAGCACAGGUAGGUCGCUGAGCUUGAGGAUCACCCAAGUUGCCU [SSAA - Alter Amptam #1 V+V2] | 64
32 | UGUAUGGACUGAAGGAGCGGGUUGAUAAUCUGAGGAUCACCCAGGUAAAAGGCGAAAGCCGCCCAGGUAGGUCGCAGUCCAUACU | 33.4
33 | AUCGUACCUAAUGAUACCAGCAAGUGAUCAUAACAUGAGGAUCACCCAUGUAAUCAGUGAUGCCCUUGGCAGCAUAAUCGUUACA [Same State - Theophylline B (Freestyle 2)] | 169
